In patent publication US20220409550A1:

What was measured:
[1] = biological target: murine PD-L1 on CHO-K1 cells (murine) (UniProt Q9EP73); experiment: cell-based or functional assay
[2] = biological target: murine PD-L1 (50010-M08H, Sino biological) (murine) (UniProt Q9EP73); experiment: SPR
[3] = biological target: murine PD-L2 (50804-M08H, Sino Biological) (murine) (UniProt Q9WUL5); experiment: SPR
Chain of murine PD-L2 (50804-M08H, Sino Biological) (murine) (Q9WUL5 20-219, stated change not applied): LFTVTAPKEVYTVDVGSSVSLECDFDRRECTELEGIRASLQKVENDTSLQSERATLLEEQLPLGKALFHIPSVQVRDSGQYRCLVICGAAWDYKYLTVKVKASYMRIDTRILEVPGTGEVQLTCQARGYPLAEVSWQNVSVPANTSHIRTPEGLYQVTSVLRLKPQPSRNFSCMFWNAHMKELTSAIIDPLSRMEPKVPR

Chain of murine PD-L1 on CHO-K1 cells (murine) (Q9EP73 19-290): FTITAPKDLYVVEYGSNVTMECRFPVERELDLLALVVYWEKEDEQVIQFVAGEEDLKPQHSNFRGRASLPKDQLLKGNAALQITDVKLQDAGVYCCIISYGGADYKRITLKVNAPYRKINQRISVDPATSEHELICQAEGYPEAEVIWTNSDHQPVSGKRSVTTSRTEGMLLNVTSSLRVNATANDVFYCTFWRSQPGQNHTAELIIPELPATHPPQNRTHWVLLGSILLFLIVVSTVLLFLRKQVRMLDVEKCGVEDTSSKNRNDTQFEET
Chain of murine PD-L1 (50010-M08H, Sino biological) (murine) (Q9EP73 19-238, stated change not applied): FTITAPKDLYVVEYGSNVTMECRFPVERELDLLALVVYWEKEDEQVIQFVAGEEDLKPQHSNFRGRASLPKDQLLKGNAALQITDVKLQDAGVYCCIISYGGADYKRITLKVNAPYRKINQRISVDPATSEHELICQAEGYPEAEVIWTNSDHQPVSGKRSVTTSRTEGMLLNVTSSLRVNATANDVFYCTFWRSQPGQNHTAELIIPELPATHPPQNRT

## PD-1-decorated nanocage (PdNC) (from UniProt P02794 1-183)
[1]
  half maximal effective concentration (EC50), NFAT-mediated luciferase expression, bioluminescent PD-1/PD-L1 blockade bioassay: 0.761 nM
[2]
  Kd: 3.81E-10 ?
[3]
  Kd: 2.07E-9 ?
